US20240148884A1

Columns and labels:
Experiment in all cases: cell-based or functional assay
human GIPR (human) = target: T1, human GIPR (human) (UniProt P48546)
T1 sequence (looked up): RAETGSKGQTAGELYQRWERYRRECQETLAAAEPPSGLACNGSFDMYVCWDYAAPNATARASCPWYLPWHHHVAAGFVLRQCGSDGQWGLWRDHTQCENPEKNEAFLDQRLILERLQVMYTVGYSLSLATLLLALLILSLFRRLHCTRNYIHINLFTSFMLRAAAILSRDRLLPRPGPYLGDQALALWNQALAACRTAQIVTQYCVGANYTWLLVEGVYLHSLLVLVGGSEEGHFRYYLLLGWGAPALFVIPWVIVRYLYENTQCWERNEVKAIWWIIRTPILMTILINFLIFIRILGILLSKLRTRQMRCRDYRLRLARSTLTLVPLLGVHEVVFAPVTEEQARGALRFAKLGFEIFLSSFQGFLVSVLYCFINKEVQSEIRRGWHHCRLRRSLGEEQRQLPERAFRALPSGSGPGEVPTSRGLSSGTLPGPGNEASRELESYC

mouse GIPR (mouse) = target: T2, mouse GIPR (mouse) (UniProt Q0P543)
T2 sequence (looked up): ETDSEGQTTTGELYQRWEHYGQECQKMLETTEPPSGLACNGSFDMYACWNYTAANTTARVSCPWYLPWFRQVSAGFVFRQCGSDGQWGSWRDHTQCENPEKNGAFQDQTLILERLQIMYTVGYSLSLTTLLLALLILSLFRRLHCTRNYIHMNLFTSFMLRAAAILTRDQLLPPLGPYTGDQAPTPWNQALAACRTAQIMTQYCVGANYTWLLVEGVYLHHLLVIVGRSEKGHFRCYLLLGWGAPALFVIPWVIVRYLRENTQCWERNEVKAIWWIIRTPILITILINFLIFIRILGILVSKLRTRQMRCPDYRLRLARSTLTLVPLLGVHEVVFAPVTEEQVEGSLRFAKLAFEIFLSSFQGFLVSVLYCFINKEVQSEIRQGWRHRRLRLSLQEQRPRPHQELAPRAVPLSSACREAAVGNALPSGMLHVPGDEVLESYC

dog GIPR (dog) = target: dog GIPR (dog)
[1] = target: cynomolgous monkey GIPR (cynomolgous monkey)
mouse GLP1R (mouse) = mouse GLP1R (mouse) (UniProt O35659)
Sequence of mouse GLP1R (mouse) (O35659 22-463 limits assumed): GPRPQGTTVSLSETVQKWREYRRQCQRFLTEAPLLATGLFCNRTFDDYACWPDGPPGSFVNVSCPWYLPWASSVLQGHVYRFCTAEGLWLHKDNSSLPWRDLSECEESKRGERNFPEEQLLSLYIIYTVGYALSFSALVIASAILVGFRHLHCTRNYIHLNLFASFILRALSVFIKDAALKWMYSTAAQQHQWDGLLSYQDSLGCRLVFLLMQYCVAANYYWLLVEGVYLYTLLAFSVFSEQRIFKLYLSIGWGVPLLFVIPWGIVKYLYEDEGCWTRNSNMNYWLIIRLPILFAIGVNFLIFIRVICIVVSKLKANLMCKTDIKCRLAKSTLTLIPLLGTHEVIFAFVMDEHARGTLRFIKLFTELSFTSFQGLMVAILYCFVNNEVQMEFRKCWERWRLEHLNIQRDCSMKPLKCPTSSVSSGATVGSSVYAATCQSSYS

[2] = target: cynomolgous monkey GLP1R (cynomolgous monkey)
dog GLP1R (dog) = target: dog GLP1R (dog)
Sequence of dog GLP1R (dog) (chain, as listed by the source): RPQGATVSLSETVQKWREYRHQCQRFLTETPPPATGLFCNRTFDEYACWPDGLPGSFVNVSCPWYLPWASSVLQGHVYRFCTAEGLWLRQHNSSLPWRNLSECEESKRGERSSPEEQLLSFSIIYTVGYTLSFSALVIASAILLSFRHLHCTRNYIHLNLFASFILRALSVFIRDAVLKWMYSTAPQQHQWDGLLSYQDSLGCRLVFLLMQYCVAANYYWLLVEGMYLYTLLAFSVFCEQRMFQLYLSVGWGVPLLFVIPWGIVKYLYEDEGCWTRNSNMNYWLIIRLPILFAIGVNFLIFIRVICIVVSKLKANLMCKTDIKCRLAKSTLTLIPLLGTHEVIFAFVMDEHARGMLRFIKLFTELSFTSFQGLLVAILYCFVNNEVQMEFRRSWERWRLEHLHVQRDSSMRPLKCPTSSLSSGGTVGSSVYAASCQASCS

In Vitro Potency GIPR EC50 [nM], 10% FBS (human GIPR (human))	In Vitro Potency GIPR EC50 [nM], Mouse (mouse GIPR (mouse))	In Vitro Potency GLP1R EC50 [nM], Cyno [2]	In Vitro Potency GLP1R EC50 [nM], Dog (dog GLP1R (dog))	Substance	In Vitro Potency GIPR EC50 [nM], No Serum (human GIPR (human))	In Vitro Potency GIPR EC50 [nM], Dog (dog GIPR (dog))	In Vitro Potency GIPR EC50 [nM], Cyno [1]	In Vitro Potency GLP1R EC50 [nM], Mouse (mouse GLP1R (mouse))
0.01 nM	0.34 nM	–	–	wild-type human GIP (hGIP) (from UniProt P09681 52-93) (ligand)	0.05 nM	0.7 nM	0.69 nM	–
–	–	–	–	Tirzepatide (peptide)	0.006 nM	0.1 nM	0.08 nM	0.16 nM
–	–	0.13 nM	0.67 nM	Semaglutide (peptide)	–	–	–	0.1 nM
